Measured values as given in the supplement of paper PMC11865577.

Tests used:
Assay in all cases: pull-down binding Z-score (relative to library population); higher = stronger binding
[1] = test system: G-clamp-N3 (biotin conjugate); settings: RNA library: Library-1 (pre-miRNA loops + repeats)
Method in brief: (§1)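 A heat-folded, dye-end-labelled (Cy5 or Cy3) RNA library (1 μg, phosphate/NaCl/KCl buffer) was exposed for 60 min at 25 °C to streptavidin beads holding 100 pmol of biotin-conjugated small molecule. RNA retained on the beads was eluted in hot SDS and hybridised to a DNA barcode microarray for 20 h at 55.5 °C. Binding scores were Z-scores against the library mean and standard deviation, calculated after subtracting beads alone and taking trimmed means of replicate probes.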

[2] = test system: TO-3-N3 (biotin conjugate); settings: RNA library: Library-2
Method in brief: as §1

[3] = test system: TO-3-N3-2 (biotin conjugate); settings: RNA library: Library-2
Method in brief: as §1

TO-N3 (biotin conjugate) = settings: RNA library: Library-2
Method in brief: as §1

[4] = test system: TO-N3-2 (biotin conjugate); settings: RNA library: Library-2
Method in brief: as §1

| Sequence | pull-down binding Z-score [1] | pull-down binding Z-score [2] | pull-down binding Z-score [3] | pull-down binding Z-score (TO-N3 (biotin conjugate)) | pull-down binding Z-score [4] |
| --- | --- | --- | --- | --- | --- |
| CUCUGCUGUGUAAAUAGUUCUGAGUAGU [hsa-mir-454] | -0.424 | -0.17 | 0.0557 | 0.186 | 0.574 |
| GGCAGUGGUUCUAAAAGCUGUC [hsa-mir-3618] | 0.498 | 0.861 | -0.198 | 0.603 | 0.117 |
| AUGUCUGCUGGGGAACCGGGGCU [hsa-mir-4518] | 1.1 | 0.587 | 0.297 | 0.984 | 1.39 |
| UUUUUCCAUUGUAAGUAAUGGGAAAA [hsa-mir-548f-5] | 0.457 | -0.644 | -0.567 | -0.991 | -1.67 |
| UGUUUAACUCCUCUCCACGUGAACA [hsa-mir-499a] | -0.0505 | 0.828 | -0.0532 | 0.731 | 0.116 |
| CGAGGUGG [hsa-mir-4302] | -0.91 | 0.954 | -0.0533 | 0.973 | 0.675 |
| GCCUCGCUUCCUGCCGGCGCGGC [hsa-mir-1538] | -0.287 | -0.255 | -0.601 | -0.389 | 0.147 |
| AGCUGUUGAACUGGGAACCUGCU [hsa-mir-31] | 0.781 | -0.162 | -0.00735 | 0.368 | 0.794 |
| GAUUAUUGUAAGCAGGAUCCAUUCAAUAAUC [hsa-mir-5188] | -0.228 | -0.19 | -0.383 | -0.366 | -0.703 |
| ACUUCAGAUGCUUCAUGACA [hsa-mir-6865] | -0.511 | -0.0886 | -0.117 | -0.0452 | -0.0136 |
| GUUCAGAGUCUGUUUUUGUCUAGC [hsa-mir-29c] | -0.124 | -0.508 | 0.0089 | -0.313 | -0.0332 |
| CAGUAUGAAUGAAUUCAUGAUACUG [hsa-mir-3607] | 0.669 | -0.768 | -0.718 | -0.881 | -0.531 |
| CUUUAGGCAUUCAGAAUAGCUAAAG [hsa-mir-4662b] | -0.994 | -0.451 | -0.212 | -0.472 | -0.263 |
| GGACGUCACCACCAUGGCC [hsa-mir-650] | -1.19 | 0.0495 | 0.247 | 0.232 | 0.358 |
| CGCUAGUAGUGGCG [hsa-mir-3960] | 0.808 | -0.152 | -0.644 | -0.435 | -0.869 |
| AGCCCUGGGCUCCUCAGCAAACCUACUGGAU [hsa-mir-3174] | -1.41 | 0.494 | 0.3 | 0.857 | 0.975 |
| AGAAGGCCUAUGGUGAUUUGCAUUCUU [hsa-mir-6875] | 0.997 | -0.099 | 0.226 | -0.072 | -0.105 |
| AUCAGCAGAGACAUGAGGUGAUCAAAAACCUUUUUUCAAAGCAGUGGG [hsa-mir-4300] | -0.911 | 0.48 | 0.276 | 0.796 | 0.438 |
| UGUCAUUACUUUCAAUGGCA [hsa-mir-548h-2] | 0.222 | -0.726 | -0.4 | -0.978 | -1.22 |

| Sequence | pull-down binding Z-score [1] | pull-down binding Z-score [2] | pull-down binding Z-score [3] | pull-down binding Z-score (TO-N3 (biotin conjugate)) | pull-down binding Z-score [4] |
| --- | --- | --- | --- | --- | --- |
| AGUGCCUCACAGCCGCACAGGACCGAGGAUGCU [hsa-mir-4737] | 0.613 | 0.0032 | -0.204 | 0.371 | 0.917 |
| UCCCAGGAAAUUCACUUUAGGAAGUCCUAGGA [hsa-mir-5571] | 0.804 | -0.734 | -0.303 | -1.1 | -1.41 |
| UGAAGGUCACCAUGUUCUCCUUG [hsa-mir-3187] | -0.816 | 0.0716 | -0.354 | 0.145 | -0.229 |
| UGGUUACGUGUUUGAUGGUUAAUCA [hsa-mir-376a-2] | 1.55 | -0.155 | -0.0388 | -0.0926 | -0.0517 |
| AGGGGACACGGGCAAAGACUUGGGGGUUCCUGGGACCCUCAGACGUGUGUCCUCU [hsa-mir-877] | 0.447 | 0.252 | 0.297 | 0.632 | 0.581 |
| AACAACAGCAUCAGAAGCAACAUCAGCUUUAGUU [hsa-mir-569] | -1.03 | 0.728 | 0.364 | 0.9 | 1 |
| CAGCCUGGGGCAUCGGUUG [hsa-mir-5572] | -0.0198 | 2.41 | 1.31 | 2.01 | 1.02 |
| GGGAGAGGGGCCCAGCUGACCCUCCUGUC [hsa-mir-6879] | -0.867 | 0.755 | 0.744 | 1.68 | 1.89 |
| GAUGCUGUAUAUCUGAAAGGUAC [hsa-mir-101-2] | -0.649 | -0.357 | -0.144 | -0.126 | 0.383 |
| UGUUCACUUUCUAUAUGAUGAAUA [hsa-mir-656] | -0.48 | -1.09 | -0.523 | -1.4 | -1.7 |
| UUAUGUUUCUGAUCCGAAUAUAA [hsa-mir-208b] | 0.538 | -0.229 | -0.345 | -0.483 | -0.679 |
| GCUGAAACACAGUUGGUUUGUGUACACUGGC [hsa-mir-24-2] | 0.212 | -0.415 | -0.521 | -0.193 | -0.00258 |
| CUUGUGGUGAAGUGGACCGCACAAG [hsa-mir-99a] | 1.24 | -0.203 | 0.00618 | -0.0222 | 1 |
| CAGACUGUCUUCCCAAAUAGCCUG [hsa-mir-4772] | -1.42 | 0.00537 | -0.219 | -0.0312 | -0.223 |
| GGCGCUGGGACCCCACUAGGGUGGCGCC [hsa-mir-4488] | 1.6 | 1.33 | 0.254 | 1.25 | 0.687 |
| UUCUGCUGUGCCUUACAGCAGUAGAA [hsa-mir-3179-4_3179-1_3179-3_3179-2] | 0.67 | 0.188 | -0.383 | 0.0349 | -0.695 |
| GUGGAGGGUGGUGCCGCCGGGGCCGGGCGCUGUUUCAGCUCGCUUCUCCCCCCAC [hsa-mir-1224] | 0.608 | 2.06 | 1.31 | 2.71 | 2.36 |
| UUUUCUUAAAUUGUAUAAAGAGAAAU [hsa-mir-944] | -0.343 | -0.406 | -0.156 | -0.741 | -0.622 |
